Measured values taken from US20030153041A1.

Tests used:
[1] = molecular target: human kidney PTH/PTHrP receptor (full-length cDNA HKrk) (human); test: affinity from competitive radioreceptor assay on COS-7 cells expressing HKrk
[2] = molecular target: rat bone PTH/PTHrP receptor clone R15B (rat); test: affinity from competitive radioreceptor assay on COS-7 cells expressing R15B
[3] = molecular target: human kidney PTH/PTHrP receptor (full-length cDNA HKrk) (human); test: competitive radioreceptor assay on COS-7 cells; human receptor against rat receptor
[4] = molecular target: rat bone PTH/PTHrP receptor clone R15B (rat); test: radioreceptor assay, radiolabelled ligand (~200,000 cpm) on COS-7 cells expressing R15B
[5] = molecular target: human kidney PTH/PTHrP receptor (full-length cDNA HKrk) (human); test: radioreceptor assay, radiolabelled ligand (~200,000 cpm) on COS-7 cells expressing the human receptor
[6] = molecular target: human kidney PTH/PTHrP receptor (full-length cDNA HKrk) (human); test: competitive radioreceptor assay on COS-7 cells; HKrK against R15B
[7] = molecular target: human kidney PTH/PTHrP receptor (full-length cDNA HKrk) (human); test: affinity from competitive radioreceptor assay on COS-7 cells expressing HKrK
[8] = molecular target: opossum kidney PTH/PTHrP receptor clone OK-H (opossum); test: cell-based or functional assay
[9] = molecular target: human kidney PTH/PTHrP receptor (full-length cDNA HKrk) (human); test: competitive radioreceptor assay on COS-7 cells; human receptor against rat bone receptor
[10] = molecular target: human kidney PTH/PTHrP receptor (full-length cDNA HKrk) (human); test: apparent Kd, competitive radioreceptor assay on COS-7 cells expressing the human receptor (FIG. 17)
[11] = molecular target: rat bone PTH/PTHrP receptor clone R15B (rat); test: apparent Kd, competitive radioreceptor assay on COS-7 cells expressing the rat bone receptor (FIG. 17)

| Kd [1] | Kd [2] | fold lower affinity against the rat receptor [3] | specific binding [4] | specific binding [5] | fold higher affinity against R15B [6] | Kd [7] | concentration of intracellular free calcium (Fura-2) [8] | fold difference in apparent Kd against the rat bone PTH/PTHrP receptor [9] | Kd [10] | Kd [11] | Substance |
| --- | --- | --- | --- | --- | --- | --- | --- | --- | --- | --- | --- |
| 35 nM | 10 nM | 2 to 4 fold | 7.1% | 7.6% | – | – | – | – | – | – | [Tyr^36]PTHrP(1-36)amide (from UniProt P12272 37-72) (peptide) |
| – | 2000 nM | – | – | – | 35 fold | 60 nM | – | – | – | – | [Nle^8,18, Tyr^34]bPTH(7-34)amide (from UniProt P01268 38-65) (peptide) |
| – | 45 nM | – | – | – | 7 fold | 7 nM | – | – | – | – | [Nle^8,18, Tyr^34]bPTH(3-34)amide (from UniProt P01268 34-65) (peptide) |
| – | – | – | 8.1% | 10.1% | – | – | 39 nm | 2 fold | 5 nM | 10 nM | [Nle^8,18, Tyr^34]bPTH(1-34)amide (from UniProt P01268 32-65) (peptide) |
